{"source": "paper PMC5241339", "about": "“Insights into binding of S100 proteins to scavenger receptors: class B scavenger receptor CD36 binds S100A12 with high affinity” (Amino Acids, 2016)", "binders": {"B1": {"name": "commercially available native human S100A12 protein (nS100A12) (natural protein, UniProt P80511 1-92, looked up)", "chain": "MTKLEEHLEGIVNIFHQYSVRKGHFDTLSKGELKQLLTKELANTIKNIKDKAVIDEIFQGLDANQDEQVDFQEFISLVAIALKAAHYHTHKE", "notes": "S100A12, human, untagged; Called 'native' in the methods and 'untagged recombinant' in the results; also called human, untagged recombinant nS100A12"}}, "biological_target": "T1, CD36 (His-tagged recombinant human protein, Sino Biological, Life technologies, 70-80 kDa) (human, UniProt P16671 30-439)", "T1 construct": "CD36, class B scavenger receptor, human, recombinant; also called Human recombinant CD36", "T1 sequence (P16671 30-439)": "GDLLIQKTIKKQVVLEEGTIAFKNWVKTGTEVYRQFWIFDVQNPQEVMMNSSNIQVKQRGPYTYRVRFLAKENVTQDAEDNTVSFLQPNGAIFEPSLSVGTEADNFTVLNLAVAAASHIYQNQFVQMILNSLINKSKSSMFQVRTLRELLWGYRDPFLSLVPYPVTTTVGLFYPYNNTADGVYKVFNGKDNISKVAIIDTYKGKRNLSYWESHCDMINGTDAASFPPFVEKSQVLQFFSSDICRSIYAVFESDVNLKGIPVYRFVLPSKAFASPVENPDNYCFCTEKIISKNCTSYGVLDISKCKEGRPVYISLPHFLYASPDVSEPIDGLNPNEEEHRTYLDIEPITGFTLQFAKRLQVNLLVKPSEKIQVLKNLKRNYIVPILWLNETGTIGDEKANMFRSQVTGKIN", "test": "SPR; Biacore T100; CD36 immobilized by amine coupling on a C1 chip (1000 RU); S100A12 species as analyte 0.62-50.0 nM, single cycle kinetics, 30 µL/min, 25 °C; HBS-P+ with 350 µM CaCl2; two-state reaction model", "conditions": "both partners purified", "note": "“And” between values parts separate entries of the source, which are not always exact repeats. Equal values may be shown once."}
{"binder": "B1", "values": [{"measurement": "Kd", "result": "1.04 nM and 0.9 nM"}]}
